{"source": "patent US20150230430A1", "about": "(University of Pennsylvania, published 2015)", "binders": {"B1": {"name": "chimeric anti-GnRH antibody (murine variable regions of hybridoma USASK/DSIL-LHRH-A1, ATCC HB-9094, fused with human IgG1 heavy chain and kappa light chain … (antibody, V domains shown)", "VH": "QIQLVQSGPELKKPGETVKISCKASGYPFTNYGMNWVKQAPGKGLKWMGWINTYTGEPACADDFRGRFAISLETSARTAYLQINNLINEDTATYFCARTGGGRYNYGMDYWGQGTSVTVSS", "VL": "QIVLTQSPAIMSASPGEKVTITCSATSSVSYIHWFQQKPGTSPKLWIYSTSNLASGVPVRFSGSGSGTSYSLTISRMEAEDAATYYCQQRSSYPPTFGGGTKLEIKR", "notes": "Full-length chimeric heavy and light chains: murine variable regions on human IgG1 and human kappa constant domains; Tested as filtered supernatant of transiently transfected 293 HEK cells; also called chimeric GnRH antibody; chimeric antibody"}}, "biological_target": "T1, Gonadotropin Releasing Hormone (GnRH) peptide (mammalian (same amino acid sequence in …, N-terminal pyroglutamic acid (pGlu))); C-terminal amide (GlyNH2))", "T1 construct": "GnRH peptide bought from Peptides International; also called LHRH; Luteinizing Hormone Releasing Hormone", "T1 peptide": "EHWSYGLRPG", "experiment": "competition ELISA (Friguet method): supernatant pre-incubated overnight with free GnRH peptide, then GnRH-coated plate; nonlinear regression", "procedure": "Supernatant was harvested […] after transfection and passed through a 0.2 μm syringe filter (Corning, Corning, N.Y.). Filtered supernatant was evaluated for total antibody expression and GnRH binding activity using protein A and GnRH ELISAs, respectively. Polystyrene ELISA plates (Corning) were coated overnight at room temperature with protein A (5 μg/mL, Sigma Aldrich, St Louis, Mo.) or GnRH peptide (1 μg/mL, Peptides International, Louisville, Ky.) in phosphate buffered saline. Plates were washed five times with PBS containing 0.05% tween 20 (Sigma), then blocked for one hour at room temperature with 1% bovine serum albumin in PBS. Filtered supernatant serially diluted two-fold in PBS was incubated in blocked wells for one hour. Plates were washed five times, then incubated for one hour with a biotinylated goat anti-human IgG1 antibody (Jackson ImmunoResearch, West Grove, Pa.) diluted 1:10,000 in blocking solution. Plates were then washed, incubated with streptavidin-HRP (Abcam, Cambridge, Mass.) diluted 1:30,000 in blocking solution for one hour, washed again, and developed with TMB substrate (Sigma). The reaction was stopped after 20 minutes by the addition of 2 N sulfuric acid. Absorbance was measured at […], with a reading at 540 nm subtracted as background. […] The fraction of antibody binding sites occupied by GnRH was calculated using the method of Stevens, 1987. […]"}
{"binder": "B1", "values": [{"measurement": "Kd", "result": 3.9, "unit": "nM"}]}
